Reference: patent US20110040077, “Protein-Responsive Translational Regulatory System Using RNA-Protein Interacting Motif” (JAPAN SCIENCE AND TECHNOLOGY AGENCY, published 2011)

Legend:
[1] = target: T1, L7Ae (Archaeoglobus fulgidus, UniProt O29494 SEQ:21-139); experiment: EMSA; 150 mM KCl, 1.5 mM MgCl2, tRNA competitor, 0-500 nM protein, on ice; details: tags: His tag (pET-28b+, NdeI/XhoI); label: 32P
Description: (§1) The reaction of L7Ae with Box C/D, Box C/D mini, or Box C/D minimut was performed at a final concentration of 10 nM, 25 nM, or 25 nM RNA, respectively. The reaction was performed as follows under conditions involving 10 nM or 25 nM RNA, 20 mM Hepes-KOH, 150 mM KCl, 1.5 mM MgCl₂, 2 mM DTT, 0.001 U/mL tRNA, 3% glycerol, and 0 to 500 nM protein. First, 1 μL of ³²P-labeled RNA was denatured at 80° C. for 5 minutes and then supplemented with 4 μL of 5×binding buffer (100 mM Hepes-KOH (pH 7.5), 750 mM KCl, 7.5 mM MgCl₂, 10 mM DTT, 0.005 U/ρL tRNA, 15% glycerol) and ultrapure water. Then, the solution was mixed with the protein to adjust the whole amount to 20 μL. The reaction solution was left on ice for 60 minutes. 2 μL of dye (0.25% BPB, 0.25% XC, 30% glycerol) was added thereto, and the mixture was electrophoresed on a 8% nondenaturing polyacrylamide gel at 4° C. for 3 to 4 hours. Then, the gel was dried for 1 hour using a gel drier and analyzed for its radiation dose intensity using Bio-Imaging Analyzer (BAS2500; FUJIFILM) (FIGS. 4 and 5).

[2] = target: T2, ThrRS (threonyl-tRNA synthetase) (Escherichia coli, UniProt P0A8M3 SEQ:13-654); experiment: EMSA; 50 mM KCl, 5 mM MgCl2, 0-40 uM protein; supershift suggests dimer; weaker than Domain 234; details: tags: His tag (pQE-30); label: 32P
Description: (§2) The reaction of ThrRS with Domain 234 or Domain 2 was performed as follows under conditions involving final concentrations of 20 nM RNA, 25 mM Hepes-KOH, 50 mM KCl, 5 mM MgCl₂, 1 mM DTT, 5% glycerol, and 0 to 40 μM protein. First, […] ³²P-labeled RNA was denatured at 80° C. for 5 minutes and then supplemented with 4 μL of 5×binding buffer ([…], 250 mM KCl, 25 mM MgCl₂, 5 mM DTT, 25% glycerol) and ultrapure water. Then, the solution was mixed with the protein to adjust the whole amount to 20 μL. The reaction solution was left on ice for 60 minutes. 2 μL of dye (0.25% BPB, 0.25% XC, 30% glycerol) was added thereto, and the mixture was electrophoresed on a 12% nondenaturing polyacrylamide gel at 4° C. for 3 to 4 hours. Then, the gel was dried for 1 hour using a gel drier and analyzed for its radiation dose intensity using Bio-Imaging Analyzer (BAS2500; FUJIFILM) (FIGS. 6 and 7).
(§3) As a result, both ThrRS Domain 234 and ThrRS Domain 2 were confirmed to increase the band in a ThrRS protein concentration-dependent manner. […] As is also evident from the degree of band smear, Domain 234 has stronger binding than only Domain 2.

[3] = target: T2, ThrRS (threonyl-tRNA synthetase); experiment: EMSA; 50 mM KCl, 5 mM MgCl2, 0-40 uM protein; stronger than Domain 2; details: tags: His tag (pQE-30); label: 32P
Description: as §2, §3

[4] = target: T1, L7Ae; experiment: EMSA; 150 mM KCl, 1.5 mM MgCl2, tRNA competitor, 0-500 nM protein, on ice; details: tags: His tag (pET-28b+, NdeI/XhoI); label: 32P; remark: listed apart in the source
Description: as §1
(§4) As a result, both Box C/D and Box C/D mini were confirmed to increase the band in an L7Ae protein concentration-dependent manner.

[5] = target: T1, L7Ae; experiment: EMSA; no band increase at 0-500 nM protein; details: tags: His tag (pET-28b+, NdeI/XhoI); label: 32P
Description: as §1, §4

T1 sequence (O29494 whole entry): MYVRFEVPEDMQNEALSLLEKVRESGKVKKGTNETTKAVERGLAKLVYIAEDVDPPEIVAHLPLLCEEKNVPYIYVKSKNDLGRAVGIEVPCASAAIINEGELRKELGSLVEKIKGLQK
T2 sequence (P0A8M3 whole entry, the tested form may be a part): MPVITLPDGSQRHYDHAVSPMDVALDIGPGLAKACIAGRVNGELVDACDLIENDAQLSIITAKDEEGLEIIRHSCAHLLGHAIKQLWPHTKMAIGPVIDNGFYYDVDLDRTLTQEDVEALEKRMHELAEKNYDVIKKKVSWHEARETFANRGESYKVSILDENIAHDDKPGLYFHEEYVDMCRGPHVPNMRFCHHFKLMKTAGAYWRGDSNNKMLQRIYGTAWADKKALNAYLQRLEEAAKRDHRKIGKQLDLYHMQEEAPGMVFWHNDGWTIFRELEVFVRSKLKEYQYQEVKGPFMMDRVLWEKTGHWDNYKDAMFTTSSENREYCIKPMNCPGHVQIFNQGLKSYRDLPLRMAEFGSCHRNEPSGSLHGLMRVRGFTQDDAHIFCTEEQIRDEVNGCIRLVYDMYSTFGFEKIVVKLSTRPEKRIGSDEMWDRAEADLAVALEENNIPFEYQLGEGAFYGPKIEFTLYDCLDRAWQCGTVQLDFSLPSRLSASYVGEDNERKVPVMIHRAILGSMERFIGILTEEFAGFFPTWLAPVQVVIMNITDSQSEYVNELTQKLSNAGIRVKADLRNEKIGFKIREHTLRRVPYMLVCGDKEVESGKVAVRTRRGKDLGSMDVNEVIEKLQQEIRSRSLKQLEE

B1: Box C/D (ssRNA)
RNA: GGCCAGAGUGGGCGUGAUGCAUGUCUAGGAAACUAGACAUGCUGACCCACUCUGGCC
[1]
  binding result: binds

B2: ThrRS Domain 2 (ssRNA)
RNA: GGCGUAUGUGAUCUUUCGUGUGGGUCACCACUGCGCC
[2]
  binding result: binds

B3: ThrRS Domain 234 (ssRNA)
RNA: GGAUUGCGAACCAAUUUAGCAUUUGUUGGCUGCAAAUGGUUUCGCAAUGAACUGUUAAUAAACAAAUUUUUCUUUGUAUGUGAUCUUUCGUGUGGGUCACCACUGCAAA
[3]
  binding result: binds

B4: Box C/D mini (ssRNA)
RNA: GGGCGUGAUGCGAAAGCUGACCC
[4]
  binding result: binds

B5: Box C/D minimut (ssRNA)
RNA: GGGCGUCAUGCGAAAGCUGCCCC
[5]
  binding result: no binding
